Reference: publication PMC4142144 (Molecular cell, 2014)

Legend:
SEC-MALS = molecular target: the molecule itself; assay: SEC-MALS
mono-ubiquitin = mono-ubiquitin (UniProt P0CG48 1-76); assay: crystal structure

| binding result (mono-ubiquitin) | Binder | stoichiometry N (SEC-MALS) |
| --- | --- | --- |
| – | 2CARD^RIG-I(E52A)-CARD^MAVS(KKK) fusion protein, 42 aa linker (other) MTTEQRRSLQAFQDYIRKTLDPTYILSYMAPWFREEEVQYIQAEKNNKGPMAAATLFLKFLLELQEEGWFRGFLDALDHAGYSGLYEAIESWDFKKIEKLEEYRLLLKRLQPEFKTRIIPTDIISDLSECLINQECEEILQICSTKGMMAGAEKLVECLLRSDKENWPKTLKLALEKERNKFSELWIVMPFAEDKTYKYICRNFSNFCNVKVVKILPYLPCLTARDQDRLRATCTLSGNRDTLWHLFNTLQRRPGWVEYFIAALRGCKLVDLADEVASVYQSYQP | 4 |
| binds | 2CARD^RIG-I(E52A) (domain or fragment, human, UniProt O95786 1-188, looked up) MTTEQRRSLQAFQDYIRKTLDPTYILSYMAPWFREEEVQYIQAEKNNKGPMAAATLFLKFLLELQEEGWFRGFLDALDHAGYSGLYEAIESWDFKKIEKLEEYRLLLKRLQPEFKTRIIPTDIISDLSECLINQECEEILQICSTKGMMAGAEKLVECLLRSDKENWPKTLKLALEKERNKFSELWIV | – |
